IntAct's records for PubMed 31515488

B1: Protein FAM13C (Homo sapiens), Q8NE31 (parent)
chain: MFSCFCFSLQDNSFSSTTVTECDEDPVSLHEDQTDCSSLRDENNKENYPDAGALVEEHAPPSWEPQQQNVEATVLVDSVLRPSMGNFKSRKPKSIFKAESGRSHGESQETEHVVSSQSECQVRAGTPAHESPQNNAFKCQETVRLQPRIDQRTAISPKDAFETRQDLNEEEAAQVHGVKDPAPASTQSVLADGTDSADPSPVHKDGQNEADSAPEDLHSVGTSRLLYHITDGDNPLLSPRCSIFSQSQRFNLDPESAPSPPSTQQFMMPRSSSRCSCGDGKEPQTITQLTKHIQSLKRKIRKFEEKFEQEKKYRPSHGDKTSNPEVLKWMNDLAKGRKQLKELKLKLSEEQGSAPKGPPRNLLCEQPTVPRENGKPEAAGPEPSSSGEETPDAALTCLKERREQLPPQEDSKVTKQDKNLIKPLYDRYRIIKQILSTPSLIPTIQEEEDSDEDRPQGSQQPSLADPASHLPVGDHLTYSNETEPVRALLPDEKKEVKPPALSMSNLHEATMPVLLDHLRETRADKKRLRKALREFEEQFFKQTGRSPQKEDRIPMADEYYEYKHIKAKLRLLEVLISKQDVAKTI
partner: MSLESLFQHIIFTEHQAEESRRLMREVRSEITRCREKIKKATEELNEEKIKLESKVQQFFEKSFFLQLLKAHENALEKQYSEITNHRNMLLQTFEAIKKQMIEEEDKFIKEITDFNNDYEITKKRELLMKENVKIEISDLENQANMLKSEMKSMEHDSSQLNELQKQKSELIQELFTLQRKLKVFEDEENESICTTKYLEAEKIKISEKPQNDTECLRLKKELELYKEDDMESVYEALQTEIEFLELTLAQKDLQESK
B2: Melanoma-associated antigen 8 (Homo sapiens), P43361 (parent)
chain: MLLGQKSQRYKAEEGLQAQGEAPGLMDVQIPTAEEQKAASSSSTLIMGTLEEVTDSGSPSPPQSPEGASSSLTVTDSTLWSQSDEGSSSNEEEGPSTSPDPAHLESLFREALDEKVAELVRFLLRKYQIKEPVTKAEMLESVIKNYKNHFPDIFSKASECMQVIFGIDVKEVDPAGHSYILVTCLGLSYDGLLGDDQSTPKTGLLIIVLGMILMEGSRAPEEAIWEALSVMGLYDGREHSVYWKLRKLLTQEWVQENYLEYRQAPGSDPVRYEFLWGPRALAETSYVKVLEHVVRVNARVRISYPSLHEEALGEEKGV
B3: Polymerase delta-interacting protein 3 (Homo sapiens), Q9BY77 (parent)
chain: MADISLDELIRKRGAAAKGRLNARPGVGGVRSRVGIQQGLLSQSTRTATFQQRFDARQKIGLSDARLKLGVKDAREKLLQKDARFRIKGKVQDAREMLNSRKQQTTVPQKPRQVADAREKISLKRSSPAAFINPPIGTVTPALKLTKTIQVPQQKAMAPLHPHPAGMRINVVNNHQAKQNLYDLDEDDDGIASVPTKQMKFAASGGFLHHMAGLSSSKLSMSKALPLTKVVQNDAYTAPALPSSIRTKALTNMSRTLVNKEEPPKELPAAEPVLSPLEGTKMTVNNLHPRVTEEDIVELFCVCGALKRARLVHPGVAEVVFVKKDDAITAYKKYNNRCLDGQPMKCNLHMNGNVITSDQPILLRLSDSPSMKKESELPRRVNSASSSNPPAEVDPDTILKALFKSSGASVTTQPTEFKIKL
partner: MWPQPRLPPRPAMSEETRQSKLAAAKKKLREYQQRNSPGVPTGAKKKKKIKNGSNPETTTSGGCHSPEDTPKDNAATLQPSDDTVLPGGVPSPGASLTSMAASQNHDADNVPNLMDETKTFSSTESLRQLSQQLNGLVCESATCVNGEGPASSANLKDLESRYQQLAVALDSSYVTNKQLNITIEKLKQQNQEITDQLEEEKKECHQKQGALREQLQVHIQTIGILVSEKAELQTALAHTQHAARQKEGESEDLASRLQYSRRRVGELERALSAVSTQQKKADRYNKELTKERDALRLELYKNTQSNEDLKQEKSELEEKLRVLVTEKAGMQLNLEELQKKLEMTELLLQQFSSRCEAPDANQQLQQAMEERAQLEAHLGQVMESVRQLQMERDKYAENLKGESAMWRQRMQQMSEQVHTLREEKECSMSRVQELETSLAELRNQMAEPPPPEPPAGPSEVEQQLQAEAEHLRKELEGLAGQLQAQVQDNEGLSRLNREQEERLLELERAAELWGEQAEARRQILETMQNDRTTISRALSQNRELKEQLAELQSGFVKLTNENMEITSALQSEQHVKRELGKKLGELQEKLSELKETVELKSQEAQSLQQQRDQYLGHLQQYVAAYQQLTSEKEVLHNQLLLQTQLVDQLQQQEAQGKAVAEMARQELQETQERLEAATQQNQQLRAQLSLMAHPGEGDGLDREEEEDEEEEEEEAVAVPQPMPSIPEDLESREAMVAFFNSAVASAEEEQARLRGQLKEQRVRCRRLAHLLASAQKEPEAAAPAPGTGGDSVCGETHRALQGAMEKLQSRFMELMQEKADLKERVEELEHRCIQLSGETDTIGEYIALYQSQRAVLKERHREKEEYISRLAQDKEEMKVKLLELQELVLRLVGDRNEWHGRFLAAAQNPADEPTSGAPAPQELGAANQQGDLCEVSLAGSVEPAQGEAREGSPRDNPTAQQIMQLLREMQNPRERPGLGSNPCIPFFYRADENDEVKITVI
B4: Leucine-rich repeat-containing protein 45 (Homo sapiens), Q96CN5 (parent)
chain: MEEFRRSYSRLCRESGAEPQEAVLQQLHQLPRGRLDLATQSLTVETCRALGKLLPRETLCTELVLSDCMLSEEGATLLLRGLCANTVLRFLDLKGNNLRAAGAEALGKLLQQNKSIQSLTLEWNSLGTWDDAFATFCGGLAANGALQRLDLRNNQISHKGAEELALALKGNTTLQQLDLRWNNVGLLGGRALMNCLPSNRTLWRLDLAGNNIPGDVLRAVEQAMGHSQDRLTTFQENQARTHVLSKEVQHLREEKSKQFLDLMETIDKQREEMAKSSRASAARVGQLQEALNERHSIINALKAKLQMTEAALALSEQKAQDLGELLATAEQEQLSLSQRQAKELKLEQQEAAERESKLLRDLSAANEKNLLLQNQVDELERKFRCQQEQLFQTRQEMTSMSAELKMRAIQAEERLDMEKRRCRQSLEDSESLRIKEVEHMTRHLEESEKAMQERVQRLEAARLSLEEELSRVKAAALSERGQAEEELIKAKSQARLEEQQRLAHLEDKLRLLAQARDEAQGACLQQKQVVAEAQTRVSQLGLQVEGLRRRLEELQQELSLKDQERVAEVSRVRVELQEQNGRLQAELAAQEALREKAAALERQLKVMASDHREALLDRESENASLREKLRLREAEIARIRDEEAQRASFLQNAVLAYVQASPVRTLSPPK
partner: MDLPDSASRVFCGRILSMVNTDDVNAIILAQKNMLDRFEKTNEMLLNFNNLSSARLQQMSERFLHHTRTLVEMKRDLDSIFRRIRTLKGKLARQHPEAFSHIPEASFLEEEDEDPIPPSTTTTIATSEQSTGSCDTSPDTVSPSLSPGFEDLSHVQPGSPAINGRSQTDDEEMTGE
B5: Vesicle transport protein SFT2B (Homo sapiens), O95562 (parent)
chain: MDKLKKVLSGQDTEDRSGLSEVVEASSLSWSTRIKGFIACFAIGILCSLLGTVLLWVPRKGLHLFAVFYTFGNIASIGSTIFLMGPVKQLKRMFEPTRLIATIMVLLCFALTLCSAFWWHNKGLALIFCILQSLALTWYSLSFIPFARDAVKKCFAVCLA
partner: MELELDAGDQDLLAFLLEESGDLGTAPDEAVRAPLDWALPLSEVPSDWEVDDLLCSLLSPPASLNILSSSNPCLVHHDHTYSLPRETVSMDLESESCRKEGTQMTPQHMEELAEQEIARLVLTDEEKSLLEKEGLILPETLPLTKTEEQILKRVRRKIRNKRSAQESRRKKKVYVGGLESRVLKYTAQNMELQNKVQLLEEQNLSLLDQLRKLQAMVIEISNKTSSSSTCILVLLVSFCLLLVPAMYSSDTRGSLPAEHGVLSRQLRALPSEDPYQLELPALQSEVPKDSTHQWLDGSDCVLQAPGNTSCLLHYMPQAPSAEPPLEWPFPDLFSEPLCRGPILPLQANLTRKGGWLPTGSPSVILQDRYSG
B6: Synaptonemal complex central element protein 3 (Homo sapiens), A1L190 (parent)
chain: MDDADPEERNYDNMLKMLSDLNKDLEKLLEEMEKISVQATWMAYDMVVMRTNPTLAESMRRLEDAFVNCKEEMEKNWQELLHETKQRL
partner: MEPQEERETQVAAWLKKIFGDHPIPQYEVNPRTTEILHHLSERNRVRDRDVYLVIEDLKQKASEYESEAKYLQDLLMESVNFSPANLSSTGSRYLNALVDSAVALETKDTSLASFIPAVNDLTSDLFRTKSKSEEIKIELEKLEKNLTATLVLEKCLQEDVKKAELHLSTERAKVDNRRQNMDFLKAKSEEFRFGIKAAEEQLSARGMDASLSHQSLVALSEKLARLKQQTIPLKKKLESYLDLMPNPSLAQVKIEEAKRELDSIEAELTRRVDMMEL
B7: Amyloid beta A4 precursor protein-binding family B member 1-interacting protein (Homo sapiens), Q7Z5R6-2 (parent)
chain: MGESSEDIDQMFSTLLGEMDLLTQSLGVDTLPPPDPNPPRAEFNYSVGFKDLNESLNALEDQDLDALMADLVADISEAEQRTIQAQKESLQNQHHSASLQASIFSGAASLGYGTNVAATGISQYEDDLPPPPADPVLDLPLPPPPPEPLSQVSMWDQRWQDHQPLLPITDVP

Variants of: B1
Conditions: with cc172_human CCDC172, P0C7W6

Row | Variant | effect of a mutation on the interaction
1 | P147S | with no effect

Variants of: B2
Conditions: with bex5_human BEX5, Q5H9J7
bex5_human BEX5, Q5H9J7, sequence (Q5H9J7 whole entry): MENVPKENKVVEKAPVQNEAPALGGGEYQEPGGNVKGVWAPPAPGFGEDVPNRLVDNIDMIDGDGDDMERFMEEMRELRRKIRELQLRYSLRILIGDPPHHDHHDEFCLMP

Row | Variant | effect of a mutation on the interaction
2 | R121H | with no effect
3 | R9C | with no effect

Variants of: B3
Conditions: with goga2_human GOLGA2, Q08379

Row | Variant | effect of a mutation on the interaction
4 | A15T | with no effect
5 | R118Q | disrupting interaction strength
6 | A16V | with no effect

Variants of: B4
Conditions: with kxdl1_human KXD1, Q9BQD3

Row | Variant | effect of a mutation on the interaction
7 | R480H | with no effect
8 | A365V | with no effect

Variants of: B5
Conditions: with creb3_human CREB3, O43889

Row | Variant | effect of a mutation on the interaction
9 | T137M | with no effect

Variants of: B6
Conditions: with haus1_human HAUS1, Q96CS2

Row | Variant | effect of a mutation on the interaction
10 | R50C | with no effect
11 | A65G | with no effect

Variants of: B7
Conditions: with dpy30_human DPY30, Q9C005
dpy30_human DPY30, Q9C005, sequence (Q9C005 whole entry): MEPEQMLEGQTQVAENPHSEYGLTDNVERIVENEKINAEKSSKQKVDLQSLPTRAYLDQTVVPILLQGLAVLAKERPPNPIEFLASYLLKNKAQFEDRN

Row | Variant | effect of a mutation on the interaction
12 | D134N | with no effect
